{"source": "the DeepSol protein solubility set"}
{"experiment": "soluble on expression in E. coli; label from the status in PepcDB or PDB records"}
{"sequence": "MEYFNAGGGGSTGNGSTDPYAVIPQQFGNGGQQPQQQVFTDYQQDGSATDYETYQQQQQQYRAAQASQQSSSMYYQNQMTAAQANYFPIHSASEHDFLGPQQPPSATTSVSGAAGAPYQSASGGNKEFMMQHQQRRGNQSGQQQQNQPSQQNNQQQQNQGARQQHPQQMQQQQQSNQSAHFMHQQLQAVQQQQAQQMHHRLQGAPINPQQFMVPPPTMMQPQQMQQAQQQQAQQMHQMQIHHQQHPQMMQQHAQQGYHPHQQNQQHQAGQHQQSHHQSQNHNQHRNHNQSHSGPHHIPQNLMMPRCMLKDWPIRCVVEGKYHAVIIGPNGSTIKDIASSTRCRVDFVNLSKKERTVLGNNDRILTVHGVAEQATKAVARILDVIQSEAVKDDVNVGADTVLRMRAHNQLCGRLIGKAGSSIKEIMQKTGTNITVTKYIEPPGGISGLTANELLGLMERTIMVRGPSIEAVVQAEALISAKLKKCYESDSQLRAQSMQCPMPPMMMPPILPPGASSSAVSAPHFIPTPPGVLQIQPGTTNLRQVRMWVPDSMIGALIGAKGKNIKMIIRDTGASVKIEAPEEKTQREAEEAEKKRKLDETDSGCEGVASGDHPQEFLEDNATINSSDAIEEKPKPVSERMVTINGDDLQLLKAQSYVFSKIAETSSSLPSSGMDGDRSHMLRIRTEVSVPTRIIGRIIGKGGQNVRELQRITGAVVKIPEEERNGGEVYRHDDGLEEDMTMIRTIGNMYSTHNVQFRLAHLVNEYYRSGDHRNKSSDYKGGRPHSAPSSGQEKDGSALEKMDQLGTIAPISNSNRASPKSVSPPKSKSP", "soluble on expression in E. coli": "not soluble"}
{"sequence": "MSLSFSAKVKGEICRYIDISKEEALAQISAIMKVCGTLAFSGRQISFKMTTENPASARLMFTILKDYFDIHAKLMVKKSNSLKKNNIYMVVVTEEMGVKKLLEITGILREIDGIMSLDYHIDENLVDTEEKKKAYIRGAFIGGGSISNPEKTYHLEFVTHSQEYAEDLGKLINTFGLKAKVIQRKNSYIVYIKEGEQIVDLLNIIGAHTALLELENIRIMKEMRNNVNRLVNCETANLSKTVNAAVRQVESIKLIEREIGLARLPKNLREVAELRLTYPEESLKELGEMLEPPVGKSGVNHRLRKIEKIAEELRTGNEGHHHHHH", "soluble on expression in E. coli": "soluble"}
{"sequence": "MEGDTISRMMGSGVQMDGKILQTFEKSFVQVQNILDHNRLLINEINQNHESKIPDNLGRNVGLIRELNNNVRRVAHLYVDLSNNFSKSMEASSEGDSSEGRGNRRIRPA", "soluble on expression in E. coli": "soluble"}
{"sequence": "AHHHHHHGSKILWAPWRIEYIRAPKHEGCIFCDFPRENRDRERLILYRGKHAFIIMNNYPYNPGHVMVAPYRHVASVEDLTDEEMLEIMKLAALIMKAIRKVMKPDGFNLGFNIGKVAGAGVDGHVHLHIVPRWNGDTNFMPVIADTKVIPESLEQAYEELKKALEEIENAE", "soluble on expression in E. coli": "soluble"}
{"sequence": "MSLADIFDFPRDARNVARADGKEADMGGEAPQTMLMRPQGVPDQVWNAVLSVDRMRRLKGMTYREIPVPNSMANFGIGVALECDETYASGWIMILYSLKFREDWHSHWRCVAFASLPLPDKEDDCLTPGMYWDMMMERLNPNDSEHVSGTVTVTQNTAFGHDPDVPRVGCEIRVSWTPLDYADGGLDAGSQVGQWASFLRSMTQSEEEGHHHHHH", "soluble on expression in E. coli": "soluble"}
{"sequence": "MTQKEISIIHPRPSSIVAALYTLRDLNVDVAILHGPPGCSFKHARLLEEDGIHVVTTGLDENGFVFGGHDRLVEVINKSIELFNPKILGVVGTCASMIIGEEMHDAVLEANPDIPVIEVEVHAGYHNNTRGVLFALESALDAGIIDRKEFERQEYLEHHHHHH", "soluble on expression in E. coli": "soluble"}
{"sequence": "SDTMKVETIGKEIIKPSATTPTDLSTLQLSIMDILMPPVYAVAFLFYTKDDLISQEQTSHTLKTSLSEILTKFHPLAGRVNGVTIKSTDEGAVFVEARVDNCDLSGFLRSPDTESLKQLLPVDDEPAPTWPLLLVKATYFRCGGMAIGLCISHRLADAASLSIFLQAWAATARGESDLVASPDFCSTKLYPAANEAIKIPGEVVNRTSVTKRFVFVASKIEELRNKVASDVVPRPTRVQSVTSLIWKCVVTASTDTIREKALFQPANLRTKIPSLLSENQIGNLLFNSLILDGKAGMDIVETVKELQKRAEDLSGLVQDEEGSSMTIGWRLFGEIINSKFNREDHDMHSVTSWCKIPLYDACFGWGSPVWVAGSVSPNLDYVTVLIDSKDGQGIEAWVTLPQENMLLLEQSTELLAFASPNPSVLI", "soluble on expression in E. coli": "soluble"}
{"sequence": "MGSDKIHHHHHHMFKDEKTPDEYAEEARSDIAAGNYAEAIEKIDKAIDKEPRNPSLHLIRADALYRQGNYSSAIEELNFTEHMDKNNPELFSLKSICYGSMGDFKRSKEEADKAIKADQSYPFAYYNRAAALRGLGDVDGAEKDFRKYIEMQPSDPDPHYDLAEIYFEKKDYKKAMEEVKAVLRNDKSNEKAYDLKLQIHLATNDGEGYFKALLEAFKNTENFKYIGTLTDGLIGIGSYDTAEDILKQFIKVYEKEPYLYDLLARTYDQEGKAKEADETYNTLLRLNNSRESHIYWFDYLLDSGRYDDLLSEIEKSGFKDEEILEIEYIAQDASGKHEEALKTAGELVKMDQTPYSRSLYATQLRKLGKLEDALTYLGSGDQDSDEVQFEKFNILLEMGNHSLAMESLKNSITASDDDEERLGHLITGISSAISKADFNTVNNFLDGLKMPEEEENIAVYALKGIVSGIFESYSKGKDMLIGLDEDRDNVCDFASYLANLMQGKASEFLNKFIEENCKKPEE", "soluble on expression in E. coli": "not soluble"}
{"sequence": "MGSDKIHHHHHHMTRIALTHVTTYRYGAPVTLGEHKMMFRPRDSHDLHIVEATLVLSPVAEVRWMHDVFGNSITIADFQGASTDFLRFESKILLDHFGLSEPTYPIAAYAETFPFTYDADLVADLGRTNERHYPDPDHRLDAWARRFLDEPGETATLEMLSAMNRAISAEFSYAARDTEGTQTPLETLERGSGSCRDFALLMMEAVRSLGLAARFVSGYLYDPALDGRNASGTVGAGATHAWLQVYLPGAGWVEFDPTNALVGGENLIRVAVTRDPSQAVPITGSFAGPGNAFLSMEVEVTLHRQDQNIQVA", "soluble on expression in E. coli": "not soluble"}
{"sequence": "MVSVSSEPVMPTALKILIAGGFGVGKTTMVGSVSEVPPLETEERMTAVSLGVDDLSGVEGKKSTTVAMDFGRITIAPELVLYLFGTPGQDRFWFMWDDLATGALAAIVLADTRRLDASFASIDFFEARDIPFAVGVNCFDGRRDCSAEQVRTALDLDPSTPVLLCDVRDRGSSKSVLLAVLEAARAQAAARLAPLGGGQLEHHHHHH", "soluble on expression in E. coli": "not soluble"}
{"sequence": "GHHHHHHHHHHGLVPRGSHMYFQKARLIHAELPLLAPFKTSYGELKSKDFYIIELINEEGIHGYGELEAFPLPDYTEETLSSAILIIKEQLLPLLAQRKIRKPEEIQELFSWIQGNEMAKAAVELAVWDAFAKMEKRSLAKMIGATKESIKVGVSIGLQQNVETLLQLVNQYVDQGYERVKLKIAPNKDIQFVEAVRKSFPKLSLMADANSAYNREDFLLLKELDQYDLEMIEQPFGTKDFVDHAWLQKQLKTRICLDENIRSVKDVEQAHSIGSCRAINLKLARVGGMSSALKIAEYCALNEILVWCGGMLEAGVGRAHNIALAARNEFVFPGDISASNRFFAEDIVTPAFELNQGRLKVPTNEGIGVTLDLKVLKKYTKSTEEILLNKGWS", "soluble on expression in E. coli": "soluble"}
{"sequence": "MHTLEQLRAGALTGIQALKLSENLTEVPAEVFQLADTLEILDLSGNRLHSLPQEMACLTRLRILFLSDNDFTIFPEVLKELKQLDMLGIKANNIQVIAEDAIPVSLRWLILTDNCIEALPVSIGRCTKLQKVMLAGNQLSGLPDELAACRNIELLRISANNMHTFPEVVKQLPRLAWLAYSSNPFQVNRSSFNALPVIAWENVALMEQLGAGASGIIYKARLNTGKSPEDVAVKVFKGAVTSDGLPEDEMTACMQAGRNSHLVSVLGVIGGHPEGMHGLVMELIPAEYKNLGRPPSFVTCTRDTFAAGTRFTAQQMLLILKGVAEAAKQLHDNGIMHGDLYAHNTLINEKYHSLFGDFGAATLYDKNNRDEAFFLERLDVRAFGCLADDLLQYSVCTKEDEWCLETLKRLSAGCMNEEPDKRPAFNTIVYELQLLQNTHLEHHHHHH", "soluble on expression in E. coli": "soluble"}
{"sequence": "MGSDKIHHHHHHMVKELDLQSVQGTMLIPLWGRAYGSEKNKNILDDTEAIRIIKEFDFDFSTIENTFGEYGCITYITRARKIDDTIKQFITKHPNATIVNIGSGLDTTFSRIDNGTIHWYNLDLPDAISFRKTLIEDTSRNTSIAKSFFDTSWFDDIKYDPNDGILFISAGVFYYFKEEDLKKIVVAMSKRFPGGELYFDAESKFALNLSNATVKKSGNNGALMYFYINNPKTLEKWSPNIKVLSCSPFFKNIPTNKGWDGSTRIMIRIVNLIKMLKFVHLRFEK", "soluble on expression in E. coli": "not soluble"}
{"sequence": "GSTVPYTITVNGTSQNILSNLTFNKNQNISYKDLEGKVKSVLESNRGITDVDLRLSKQAKYTVNFKNGTKKVIDLKSGIYTANLINSSDIKSININID", "soluble on expression in E. coli": "soluble"}
{"sequence": "MSLIYSGKFRIGVQDEAALQMLHDPEKLGPCLPGVSSFERNDDGYSCKVRLDVSSMGSSYLSKISGKLAFSYLDSENRTIHVQGKGRIAGSSISFDLFISVNGGELIWKIDVNYGILIKMMGEEKIRDVTQANIDRSVKCLSSVLCQEGHHHHHH", "soluble on expression in E. coli": "soluble"}
{"sequence": "MGSDKIHHHHHHMHILIYSYNYHPEPIGIAPLMTELAEGLVNRGHEVRVITGMPNYPEREIYDGYRGQWYVTEQKNGVTIQRSYIRIKSKPNLLDRLLLELSFIFTSLPQAFRGERPDVMILTVPPLLGILPATIFGWLYNCPIVLNVQDILPEAAVRIGLLKNKWMIRTLAALEKFAYRTAHTISVIADGFRENLVNKGVPVNKIVCIPNWVNVNFIHPLPKQNNSWISSHQLDGKFIVLYSGNIALTQGLETVIEAAVCLRHIKEIVFVIVGESRALQRLQEYCLLHGADNVLLLPLQPREKLPEMLAAADVGLIVQKRNIISFNMPSKIPLLLASGRPIVGSVPATGTAARAIKLSGGGIIVEPESPDAMAAAVHDLYANPTFCTRLGNAGRQFAEENYSLEQALDRYEWLFYHILANRKSNVGILPKLDSKESVVDA", "soluble on expression in E. coli": "not soluble"}
{"sequence": "EGFKKLELNYMKERSYEEAKEYLDRALKNSVLKRVRGLDKVGIICSGGVDSSLIAKLASLYCEVILYAVGTENSEDLIYAERLAKDLNLKLRKKIISEEEYEEYVFKVAKAIDEVDLMKIGVGIPIYVASEMANEDGLKVVLSGQGADELFGGYARHERIYRERGEEELKKELLKDVYNLYKVNLERDDHCTMANGVELRVPFLDEEVVEIALSIPIEYKMSELSNRPYAESNISLKSEPINGLKNTNLNIKCVRSVRKKILRDVASQYLPDYIAYRPKKAAQYGSG", "soluble on expression in E. coli": "soluble"}
{"sequence": "MAHERAGQLAQPQDLIDIAEVVTAYYTRTPDADNPDQQVAFGTSGHRGSSLDTAFNENHILAITQAIVEYRAQHHIGGPIFIGRDTHALSEPAMISALEVLLAHGIEVLVDDRGRYTPTPAVSHAILAYNAQRSDSSQYSDGIVITPSHNPPRDGGFKYNPPNGGPADTDATDWIADRANTLLREGLVSVKRTSVTGVLDPRAHRHNYMENYIADLPNVVDIDAIRNSGLAIGADPMGGASVDYWGAIAEKHSLNLTVVNPLVDATWRFMTLDTDGKIRMDCSSPDSMASLVHNRTKYDIATGNDADADRHGIVTPDAGLMNPNHYLAVAIDYLFSHRPQWNSSTAVGKTLVSSSMIDRVVADLGRKLVEVPVGFKWFVPGLVDGSVGFGGEESAGASFLRHNGTVWSTDKDGIILDLLASEITAVTGKTPSQRYEELAARFGSPAYARTDAPATREQKAVLKKLSPEQVTATELAGEAITAKLTTAPGNGAAIGGLKVTTENAWFAARPSGTEDKYKIYAESFLGADHLAMVQREAQNLVSDVL", "soluble on expression in E. coli": "not soluble"}
{"sequence": "MAHHHHHHMRPSLPKKVLAWIASYPSYFIVDDPTEKDPSKARIRRASDRQPLDVALELYRWIPEEGISEAALLTKLSEVHRDYVKRIGLRHIVDSLSEWLSFTEAPGGGGGGAEGEEKVLLLRRLQTEVELERAIHTEESKLASGDENSLPVQIEDAEMERRWPKLKYEGTMSQQQASVARAQQRRGRGDI", "soluble on expression in E. coli": "soluble"}
